Experimental data published in patent US20050170502A1, “Methods for maintaining hepatocytes in culture and for differentiating embryonic stem cells along a hepatocyte lineage” (REGENTS OF THE UNIVERSITY OF CALIFORNIA, priority 2003, published 2005).

Test system: mouse ES cells (ES-D3)
Experiment: Hepatocyte-specific gene expression in differentiated mouse ES cells, real-time quantitative RT-PCR
Details: mouse ES cells, IMDM, collagen type I, day 33, FIG. 2A
Description: Mouse ES cell line ES-D3 and mouse STO fibroblasts were obtained from the American Type Culture Collection, Manassas, Va. ES cells were expanded on STO fibroblast feeder layers in Dulbecco's modified Eagle's medium (DMEM) (unless specified, cell culture supplies were from Invitrogen, Carlsbad, Calif.) containing 15% fetal bovine serum (FBS), 1 mM L-glutamine, 60 μM non-essential amino acid solution, 0.1 mM 2-mercaptoethanol, 10 mM HEPES (Sigma-Aldrich, Saint Louis, Mo.), 1400 U/ml leukemia inhibitory factor (LIF) (Chemicon International, Temecula, Calif.), and penicillin/streptomycin at standard concentrations. To prepare feeder layers, STO fibroblasts were cultured until confluent and treated with 10 μg/ml mitomycin C (Sigma-Aldrich) for 4 hours. […]
Total RNA was extracted with RNeasy Mini Kit (Qiagen, Valencia, Calif.). Real time quantitative RT-PCR was employed for the determination of gene expression as described in detail previously by our group (Wege, H. et al., Gastroenterology 124:432-444 (2003)). […] Relative mouse or human gene expression analysis (ΔΔCT) was performed by real-time quantitative PCR with the ABI Prism 7700 Sequence Detection System and SYBR PCR Green Master Mix or TaqMan PCR Master Mix (Applied Biosystems, Foster City, Calif.). […] Normalized expression of hepatocyte-specific genes was compared to levels detected in primary adult mouse or human hepatocytes.

B1: OnM: oncostatin M (protein, UniProt P13725 26-221, looked up)
Oncostatin-M: AAIGSCSKEYRVLLGQLQKQTDLMQDTSRLLDPYIRIQGLDVPKLREHCRERPGAFPSEETLRGLGRRGFLQTLNATLGCVLHRLADLEQRLPKAQDLERSGLNIEDLEKLQMARPNILGLRNNIYCMAQLLDNSDTAEPTKAGRGASQPPTPTPASDAFQRKLEGCRFLHGYHRFMHSVGRVFSKWGESPNRSRR
albumin gene expression (effect of individual growth and differentiation factors): only minor positive or even negative effects
